Here are results for two molecules from patent US20230167458A1, “FORSKOLIN-INDUCIBLE PROMOTERS AND HYPOXIA-INDUCIBLE PROMOTERS” (ASKLEPIOS BIOPHARMACEUTICAL, INC., priority 2020, published 2023).

“Also recorded” adds a separate entry of the source.

The subject of series [1] is HEK293-F. Kind of series: Luciferase time course under hypoxia, transiently transfected HEK293-F. The settings on record: 5% oxygen, 3, 5 and 24 hrs. Type of series: cell-based, human. The procedure:
The constructs were initially used to drive luciferase expression in HEK293-F and HEK293-T in hypoxia.
40 ml of cells were grown in a 250 ml vented Erlenmeyer flask (Sigma-Aldrich CLS431144) at 37° C., 20% O2, 8% CO2 with agitation at 100 rpm. Cells were seeded as described in the manufacturer's instructions (300,000 cells/ml). HEK293-F were obtained from Thermofisher, R79007.
One day before transfection, the cells were counted using a haemocytometer and split to 500,000 cells/ml.
On the day of transfection, the cells are seeded to 1,000,000 cells/ml in 500 μl of appropriate medium (Freestyle 293 expression medium, 12338002) in a 24 well plate. […] of DNA per well was then added to 10 μl of OptiMem medium (Thermofisher; 11058021) and incubated for 5 minutes at room temperature.
Concurrently, 0.625 μl of Max reagent (Thermofisher, 16447100) was made up to 10 μl by addition of OptiMem and incubated for 5 minutes at room temperature. After this incubation, both mixes were added to the same tube and incubated at room temperature for 25-30 minutes. […]
After transfection the cells were incubated for 24 hrs in normoxia conditions (20% oxygen) before being switched to a gas mix of 5% oxygen, 10% carbon dioxide and 85% nitrogen (hypoxia). […] Induction of the promoters was assessed by using luciferase activity after 3, 5 and 24 hrs in hypoxia.
Luciferase activity was measured using LARII (Dual Luciferase Reporter 1000 assay system, Promega, E1980).
Media was removed from the cells at the respective time point (0, 3, 5, 24 hrs after induction). […] 10 μl of supernatant was pipetted into white 96-well plate and luminescence measured by addition of 50 μl of LARII substrate.
β-galactosidase activity was measured as per manufacturer's instructions (Mammalian βGalactosidase Assay Kit, 75707/75710, Thermo Scientific) using 25 μl of lysate. […] The mixture was incubated at 37° C. for 30 min and absorbance measured at 405 nm.
Luciferase readouts were normalised to β-galactosidase to produce normalised relative luminometer units (RLUs).

Series [2] deals with Huh7 human liver cell line. Put plainly: Luciferase expression from forskolin-inducible promoters, transient transfection of PM-RQ plasmid in Huh7. The format is cell-based. On the set-up: luciferase activity following induction / fold induction of promoter (luciferase activity): dose or concentration left out as unconfirmed. The procedure: Luciferase readouts were normalised to β-galactosidase to produce normalised relative luminometer units (RLUs). β-galactosidase containing pcDNA6 plasmid was used as internal control for transfection efficiency (Thermofisher, V22020). β-galactosidase activity was measured as per manufacturer's instructions (Mammalian βGalactosidase Assay Kit, 75707/75710, Thermo Scientific) using 25 μl of lysate. 25 μl of lysate was transferred into a microplate well and mixed with 25 μl of β-galactosidase Assay Reagent, equilibrated to room temperature. The mixture was incubated at 37° C. for 30 min and absorbance measured at 405 nm.
The forskolin-inducible promoters were initially used to drive expression of luciferase in the Huh7 human liver cell line and the C2C12 […]. The promoter constructs were used to drive expression of luciferase in the PM-RQ plasmid. The tested promoters were synthesised directly upstream of the ATG of PM-RQ plasmid.
• Huh7 cells which are a human liver cell line • DPBS: without CaCl2, without MgCl2 (Gibco, 14190-094) • DMEM (Sigma, D6546) • FBS (Sigma, F9665) • Pen-Strep (Sigma, P4333) • Promega Fugene-HD (E2311) • Forskolin (Sigma, F6886) • NKH477 (Sigma, N3290) • LARII (Dual Luciferase Reporter 1000 assay system, Promega, E1980) • 48 well plates flat bottom (353230, Corning) • Trypsin-EDTA (25200-056, Gibco) • T25 & T75 flask (353108, 353136, Corning) • 15 ml Falcon tubes (430791, Corning) • Stripettes 5 ml, 10 ml and 25 ml (4101,4051,4251, Corning)
Cells were seeded onto a 48 well plate at a density of 25,000 cells/300 μl
• On the day of transfection, DNA to be transfected was diluted to a 100 ng/μl stock solution. DNA to be transfected was the RTV-017, RTV-019 or CMV-IE promoter driving luciferase in the PM-RQ plasmid. • Per 48 well transfection, 45 ng of DNA was mixed with 4.1 μl of Optimem medium. • 0.5 μl of […] was mixed with 4 μl of Optimem medium. • These 2 solutions were mixed and incubated at room temperature for 15 minutes. • The final solution was then added to the well drop wise. • 3 hrs after transfection the inducer was added to the appropriate wells at the indicated concentration. Inducer was forskolin at […].
• 24 hrs after induction, the luciferase activity was measured as described below.
• Luciferase activity was measured using LARII (Dual Luciferase Reporter 1000 assay system, Promega, E1980) • 24 hours after induction, the media was removed from the cells • The cells were washed once in 300 μl of DPBS. • Cells were lysed using 100 μl of passive lysis buffer and incubated with rocking for 15 minutes. • The cell debris was pelleted by centrifugation of the plate at max speed in a benchtop centrifuge for 1 min • For luciferase, 10 μl sample was transferred into white 96-well plate and luminescence measured by injection of 50 μl of LARII substrate
RTV-017 and RTV-019 were transiently transfected into the human liver cell line Huh7 (FIG. 2). RTV-019 was transiently transfected into the […] C2C12 (FIG. 3). The activity of the promoters was assessed using luciferase activity. The luciferase activity was measured with and without the presence of […] forskolin.

In series [3] the test system is Huh7 human liver cell line. Kind of series: Luciferase expression from promoters in pAAV vector (with ITRs) in Huh7, forskolin or NKH477 induction. On the set-up: fold induction with forskolin: dose or concentration left out as unconfirmed.
Procedure: The forskolin-inducible promoters RTV-017, RTV-019 and FORCYB1 were then used to drive expression of luciferase in a pAAV vector in the Huh7 human liver cell line. […] This experiment was performed to investigate the effect of the Inverted Terminal Repeats (ITRs) on the activity of the promoters.
The cells were seeded, transfected and induced as described above. Luciferase expression was measured as described above. In this experiment, the cells were induced by using 20 pM forskolin or 7.2 pM of the water soluble derivative NKH477.

B1: CMV minimal promoter: CMV minimal promoter, SEQ ID NO: 28; named as control in FIG. 13 legend (nucleic acid)
DNA: AGGTCTATATAAGCAGAGCTCGTTTAGTGAACCGTCAGATCGCCTAGATACGCCATCCACGCTGTTTTGACCTCCATAGAAGATCGCCACC
Turning to B1, the “effect of switch to hypoxia on luciferase activity” value in series [1] is “does not change”.

B2: RTV-017: synthetic forskolin-inducible promoter, SEQ ID NO: 43; 8× AP1(1) TFBS and CMV-MP minimal promoter (nucleic acid)
DNA: TGAGTCAGATGATGCGTAGCTAGTAGTTGAGTCAGATGATGCGTAGCTAGTAGTTGAGTCAGATGATGCGTAGCTAGTAGTTGAGTCAGATGATGCGTAGCTAGTAGTTGAGTCAGATGATGCGTAGCTAGTAGTTGAGTCAGATGATGCGTAGCTAGTAGTTGAGTCAGATGATGCGTAGCTAGTAGTTGAGTCAGTAGTCGTATGCTGATGCGCAGTTAGCGTAGCTGAGGTACCGTCGACGATATCGGATCCAGGTCTATATAAGCAGAGCTCGTTTAGTGAACCGTCAGATCGCCTAGATACGCCATCCACGCTGTTTTGACCTCCATAGAAGATCGCCACC
modifications: Synp-RTV-017
notes: 8× AP1(1) TFBS and CMV-MP minimal promoter
B2: the “luciferase activity without induction (background)” value is “low background activity” in series [2] (Huh7, before addition of forskolin) and “low background activity” in series [3] (Huh7). The “luciferase activity following induction” value in series [2] (Huh7, forskolin) was “high activity; also recorded: much higher activity”; in series [3] (Huh7, or 7.2 pM NKH477), “high activity”. Besides, the “fold induction of promoter (luciferase activity)” value in series [2] (Huh7 liver cells, PM-RQ plasmid, forskolin, 24 hrs after induction) turned out to be 13 fold. The “fold induction with forskolin” value in series [3] (Huh7) came to 44 fold. Besides, the “fold induction with NKH477” value in series [3] (Huh7, 7.2 pM NKH477) is on record as 23 fold.
